According to publication PMC10024175, “Structuring supramolecular hyaluronan hydrogels via peptide self-assembly for modulating the cell microenvironment” (Materials Today Bio, 2023):

B1: (KI)4K peptide (peptide)
peptide: Ac-KIKIKIKIK-NH2
notes: rationally designed cationic amphipathic peptide; Synthesised on a rink amide MBHA resin, so the C-terminus is probably an amide (surmised); source: synthetic peptide (Fmoc solid-phase synthesis, purified by preparative RP-HPLC)
B2: (KI)2K peptide (peptide)
peptide: Ac-KIKIK-NH2
notes: as for B1
B3: (KI)6K peptide (peptide)
peptide: Ac-KIKIKIKIKIKIK-NH2
notes: as for B1
B4: (KI)5K peptide (peptide)
peptide: Ac-KIKIKIKIKIK-NH2
notes: as for B1
B5: (KI)3K peptide (peptide)
peptide: Ac-KIKIKIK-NH2
notes: as for B1

What was measured:
[1] = molecular target: the molecule itself; test: transmission electron microscopy; 1 mM peptide in deionized water, pH 11 (NH4OH), negative staining with uranyl acetate, dried on the grid
[2] = molecular target: the molecule itself; test: FTIR spectroscopy; 10 mM peptide in D2O, pH 7, NaCl 0, 50, 100, 200, 300 and 400 mM; beta-sheet formation read as self-assembly
[3] = molecular target: the molecule itself; test: zeta potential; 1 mM peptide in ultrapure water, neutral pH; self-association of the peptide

Protein	binding result [1]	further results
B1	binds	
B2	binds	
B3		binding result [2]: binds
B4		binding result [3]: binds
B5	binds	
